Data as given in the nanobody polyreactivity screen of Harvey et al. (2022).

Test: yeast display, Sf9 membrane polyspecificity reagent, FACS + sequencing; frameworks hold sequencing errors
Method in brief: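 Synthetic nanobody libraries on Saccharomyces cerevisiae BJ5465 were galactose-induced for 36–48 hours, stained 1 hour at 4 °C with 10% biotinylated, detergent-solubilized Sf9 membrane reagent and enriched on streptavidin microbeads. FACS then separated cells into low and high (top ~1%) gates by anti-HA (expression) and streptavidin (reagent binding) fluorescence. Genes were colony-PCR amplified, MiSeq 2 × 250 sequenced and CDR-length filtered. A clone's polyreactivity label is that of its gate of origin.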
With “QVQLVESGGGLVQAGGSLRLSCAASGGPFTYYTMGCYRQAPGKERELVAAISTGGRTYYADSVKGRFTISRDNAKNTVYLQMNCLKAEATAVYYCYPLYDETDVLGEFDYWGQGTQVTVSS” the “polyreactivity (PSR sort gate)” value was “low polyreactivity”. For “QVQLVESGGGLVQAGGSLRLSCAASGGPFWYYAMGWYRQAPGKERELVAAITRGGSTSYADSVKGRFTISRDNAKKTVYLQMNSLKPEDTAVYYCNARPYSSYWRYNYWGQGTQVTVSS”, the “polyreactivity (PSR sort gate)” value was “high polyreactivity”. For “QVQLVESGGGLVQAGGSLRLSCAASGGTCSFYTMGWYRQAPGKERELVAAISRSGGRTYYADSVKGRFTISRDNAQNTVYLQMNSLKPEDTAVYYCAAERFSNIYTTMGYWGQGTQVTVSS”, the “polyreactivity (PSR sort gate)” value was “high polyreactivity”. With “QVQLVESGGGLVQAGGSLRLSCAASGGTFAANDMGWYRQAPGKEREFVAAIDWSGGSTYYADSVKGRFTISRDNAKNTVYLQMNSLKPVDTAVYYCNAGPAVRSAYSTPYYDYWGQGTQVTVSS” the “polyreactivity (PSR sort gate)” value was “low polyreactivity”. With “QVQLVESGGGLVQAGGSLRLSCAASGGTFAFNAMGWYRQAPGKERELVATIRYSGGSTYADSVKGRFTISRDNAKNTVYLQMNSLKPEDTAVYYCAADVIYWFSGEYDYWGQGTQVTVSS” the “polyreactivity (PSR sort gate)” value was “low polyreactivity”. For “QVQLVESGGGLVQAGGSLRLSCAASGGTFAVNAMGWYRQAPGKEREFVAAISSRGSTSYADSVKGRFTISRDNAKNTVYLQMNSLKPEDTAVYYCAKRQGYWFDYWGQGTQVTVSS”, the “polyreactivity (PSR sort gate)” value was “high polyreactivity”. For “QVQLVESGGGLVQAGGSLRLSCAASGGTFCRNVMGWYRQAPGKERELVAAISRRGSSTYYADSVKGRFTISRDNAKNTVYLQMNSLKPEDTAVYYCARDQYTGADEAGDDYWGQGTQVTVSS”, the “polyreactivity (PSR sort gate)” value was “high polyreactivity”. With “QVQLVESGGGLVQAGGSLRLSCAASGGTFDYNAMGWYRQAPGKERELVAAITSGASTYYADSVKGRFTISRDNAKNTVYLQMNSLKPEDTAVYYCAKGPTPGYDYWGQGTQVTVSS” the “polyreactivity (PSR sort gate)” value was “low polyreactivity”. With “QVQLVESGGGLVQAGGSLRLSCAASGGTFDYYAMGWYRQAPGKERELVAAITRGSTNYADSVKGRFTISRDNAKNTVYFQMNSLKPEDTAVYYCAARGRFVTPQPSYDYWGQGTQVTVSS” the “polyreactivity (PSR sort gate)” value was “high polyreactivity”. For “QVQLVESGGGLVQAGGSLRLSCAASGGTFEYNAMGWYRQAPGKERELVAAISKSGGRTYFADSVKGRFTISRDNAMNTVYLQMNSLKPEDTAVYYCAKRYVWGQGTQVTVSS”, the “polyreactivity (PSR sort gate)” value was “high polyreactivity”. In the case of “QVQLVESGGGLVQAGGSLRLSCAASGGTFEYYAMGWDRQAPGKESELVAGITGGGVSTYYADSVKGRFTISRDNAKNPVYLQKNSLKPEDTAVYYSAAAYYQDNFWWYYYWGQGTQVNVSS”, the “polyreactivity (PSR sort gate)” value is reported as “high polyreactivity”. With “QVQLVESGGGLVQAGGSLRLSCAASGGTFEYYPMGWYRQAPGKETEMVAGITWGGVSTYYADSVKGRFTLSRDTAKNTVYLQMNSLKPEDTSVFYCAAAYSQDNVWWYYYWGQGTQVTVSS” the “polyreactivity (PSR sort gate)” value was “high polyreactivity”. In the case of “QVQLVESGGGLVQAGGSLRLSCAASGGTFFLYAMGWYRQAPGTERELVADISSGDSTNYADSVKGRFTISRDNAKNTVYLQMNSLKPEDTAVYYCAADGKLEYVNGYNLYYWGQGTQVTVSS”, the “polyreactivity (PSR sort gate)” value is reported as “low polyreactivity”. With “QVQLVESGGGLVQAGGSLRLSCAASGGTFFTNAMGWYRHAPGKERELVAVITGSGGRTYYADSVKGRFTISRDNAMNTVYLQMNSLKPEDTAVYYCAARGYSWGQGTQVTLSS” the “polyreactivity (PSR sort gate)” value was “high polyreactivity”. In the case of “QVQLVESGGGLVQAGGSLRLSCAASGGTFFWYGMGWYRQAPGKERELVAAITSGGSTYYADSVKGRFTISRDNAKNTVYLQMNSLKPEDTAVYYCATENRFRGWYPTRSSLPYEYWGQGTQVTVSS”, the “polyreactivity (PSR sort gate)” value is reported as “low polyreactivity”. For “QVQLVESGGGLVQAGGSLRLSCAASGGTFGGYAMGWYRQAPGKERELVAVISQSGGTTYYADSVKGRFTISRDNAKNTVYLQMNSLKPEDTAVYYCNAYTYYKRFGYWGQGTQVTVSS”, the “polyreactivity (PSR sort gate)” value was “high polyreactivity”. For “QVQLVESGGGLVQAGGSLRLSCAASGGTFGHYTMGWYRQAPGKERELVAAISGSGGTTYYADSVKGRFTISRDNAKNTVYLQINSLKPEDTAVYFCNKGIPTRSVRSYDYWGQGTKVTVSS”, the “polyreactivity (PSR sort gate)” value was “high polyreactivity”. For “QVQLVESGGGLVQAGGSLRLSCAASGGTFGRYAMGWYRQAPGKERELFAAITWGGTRTYYADSVKGRFTISRDNAKNTVYLQMNSLKPEDTAGYYCAAYSNYPVFDYNYWGQGTQVTVSS”, the “polyreactivity (PSR sort gate)” value was “high polyreactivity”. In the case of “QVQLVESGGGLVQAGGSLRLSCAASGGTFGRYAMGWYRQAPGKERELVASITTGGRTNYADSVKGRFTISRDNAKNTVYLQMNSLKPEDTAVYYCAKKRYGYPVPFYYWGQGTQVTVSS”, the “polyreactivity (PSR sort gate)” value is reported as “high polyreactivity”. In the case of “QVQLVESGGGLVQAGGSLRLSCAASGGTFGSYAMGWYRQAPGKERELVAAIDYSGADTYYADSVKGRFTISRDNAKNTVFLQMNSLKPEDTAVYYCNAEFESGHDLDWYDYWGQGTQVTVSS”, the “polyreactivity (PSR sort gate)” value is reported as “low polyreactivity”. In the case of “QVQLVESGGGLVQAGGSLRLSCAASGGTFGSYAMGWYRQAPGKERELVAAIRSGDRTYYADSVKGRFTISRDNAKNTVYLQMNSLKPEDTAVYYCAKLRYPYLFWDDSEYWGQGTQVTVSS”, the “polyreactivity (PSR sort gate)” value is reported as “low polyreactivity”. In the case of “QVQLVESGGGLVQAGGSLRLSCAASGGTFGTNTMGWYRPAHGKERELVAAISKRGGRTYYADSVKGRFTISRDNAKITVYLQMNSLKPEDTAVYYCAADTGGNPKYDYWGQGTQVTVSS”, the “polyreactivity (PSR sort gate)” value is reported as “high polyreactivity”. In the case of “QVQLVESGGGLVQAGGSLRLSCAASGGTFGTYAMGWYRQAPGKERELVAAITYRGGRTYYADSVKGRFTISRDNAKYTVYLQLDCVKPEDSAVYYCAKDVRGHRHPYSLRDYWGEGTQVTVSS”, the “polyreactivity (PSR sort gate)” value is reported as “high polyreactivity”. In the case of “QVQLVESGGGLVQAGGSLRLSCAASGGTFGYNAMGWYRQAPGKERELVAAISYTGDSTYYADSVKGRFTISRDNAKNTVDLQMNSLKPEDTAVYYCAASVYYYRYNYWGQATQVTVSS”, the “polyreactivity (PSR sort gate)” value is reported as “low polyreactivity”. For “QVQLVESGGGLVQAGGSLRLSCAASGGTFGYNVMGWYRQAPGKERELVAAISYSVGGTYYADSVKGRFTISRDNAMNTVYLQMNSLKPEDTAVYYCAATGRRRTYSEYEYWGQGTQVTVSS”, the “polyreactivity (PSR sort gate)” value was “high polyreactivity”. For “QVQLVESGGGLVQAGGSLRLSCAASGGTFHRYAMGWYRQAPGKERELVAAISGSGASTYYADSVKGRFTISRDNAKNTVYLQMNSLKPEDTAVYYCNALWYYQIGPRGDHWGQGTQVTVSS”, the “polyreactivity (PSR sort gate)” value was “high polyreactivity”. In the case of “QVQLVESGGGLVQAGGSLRLSCAASGGTFKLYAMGWYRQAPGKERELVAAISRRGGSTYYADSVKGRFTISRDNAKNTVYLQMNSLKPEDTAVYYCAAPGPTQSTQRGGYWGQGTQVTVSS”, the “polyreactivity (PSR sort gate)” value is reported as “high polyreactivity”. With “QVQLVESGGGLVQAGGSLRLSCAASGGTFKTNAMGWYRQAPGKERELVAAITGSGTSTYYADSVKGRFTISRDNAKNTVYLQMNSLKPEDTAVYYCAADKLYQPGIGDDYWGQGTQVTVSS” the “polyreactivity (PSR sort gate)” value was “low polyreactivity”. For “QVQLVESGGGLVQAGGSLRLSCAASGGTFKTYAMGWYRQAPGKERELVAAITSSSSRTHYADSVKGRFTISRDNAKYTVYLQMNSLKPEVTAVYYCAAAIPSYTRTGYWGQGTQVTVSS”, the “polyreactivity (PSR sort gate)” value was “high polyreactivity”. With “QVQLVESGGGLVQAGGSLRLSCAASGGTFLAYAMGWYRQAPGKERELLATITSGGSTNYADSVKGRFTISRDNAKNTVYVQMNSLKPEDTAVYYCAASGRDFIAESPYDYWGQGTQVTVSS” the “polyreactivity (PSR sort gate)” value was “low polyreactivity”. With “QVQLVESGGGLVQAGGSLRLSCAASGGTFLAYAMGWYRQAPGKERELVAAITRRGTRTYYADSVKGRFTISRDNAKNTVYLQMNSLKPEDTAVYYCAVSGGFYWGQGTQVTVSS” the “polyreactivity (PSR sort gate)” value was “high polyreactivity”. For “QVQLVESGGGLVQAGGSLRLSCAASGGTFLYYMGWYRQSPGKERELVAAITFSGGSTYYADSVKGRFTISRDNAKNTVYLQMNSLKPEDTAVYYCAAGWYDWPKYLLSVYTYYLYDSWGQGTQVTVSS”, the “polyreactivity (PSR sort gate)” value was “low polyreactivity”. In the case of “QVQLVESGGGLVQAGGSLRLSCAASGGTFNGYAMGWYRQAPGKERELVAAITSGGGSTYADSVKGRFTISRDNAKNTVYLQMNSLKTEDTAVYYCNADQWDEWFWDYDYWGQGTQVTVSS”, the “polyreactivity (PSR sort gate)” value is reported as “low polyreactivity”. With “QVQLVESGGGLVQAGGSLRLSCAASGGTFPLYAMGWYRPAPGKERELVAAIRWSGGRTYYADSVKGRFTISRDNAKNTVYLQMNSLKPEDTAVYYCAADYDDGWGYDYWGQGTQVTVSS” the “polyreactivity (PSR sort gate)” value was “high polyreactivity”. For “QVQLVESGGGLVQAGGSLRLSCAASGGTFQRYVMGWYIQAPGKERELVAAISRSGSTYADSVKGRFTISRDNAKNTVYLQMNSLKPEDTAFYYCNVVRYYRYYLHGYDYWGQGTQVTVSS”, the “polyreactivity (PSR sort gate)” value was “high polyreactivity”. In the case of “QVQLVESGGGLVQAGGSLRLSCAASGGTFQWNAMGWYRQAPGNERELVAAITSGGRTNYADSVKGRFTISRDNAKTTVSFQLNSLKPEDTAVYYCAATAWDRYIDYDYWGQGTQETVSS”, the “polyreactivity (PSR sort gate)” value is reported as “high polyreactivity”. With “QVQLVESGGGLVQAGGSLRLSCAASGGTFRDYAMGWYRQAPGKERELVASISWTVGGTYADSVKGRFSISRDNAKNTVYLQMNSLKPEDTAVYYCAADYSPSTWYLYYTLYYYWGQGTQVTVSS” the “polyreactivity (PSR sort gate)” value was “low polyreactivity”. For “QVQLVESGGGLVQAGGSLRLSCAASGGTFRFNAMGWYRQAPGKERELVAAISRGGSTNYADSVKGRFTISRDNAKNTVYLQMNSLKPEDTAVYYCAADTYHPRFWYDYWGQGTQVTVSS”, the “polyreactivity (PSR sort gate)” value was “low polyreactivity”. With “QVQLVESGGGLVQAGGSLRLSCAASGGTFRGYTMGWYRPAPGKERELVAAITRIGGSTYYADSVKGRFTISRDNAKYTVYLQMNSLKPEDTAVYYCAARGGVPYSNAYDFWGQGTQVTVSS” the “polyreactivity (PSR sort gate)” value was “low polyreactivity”. In the case of “QVQLVESGGGLVQAGGSLRLSCAASGGTFRPYAMGWYRQAPGKERELVATIRSSGGRTYYADSVKGRFTISRDNAKNTVYLQMNSLKPDDTAVYYCAKRAQTYYGYDYWGQGTQVTVSS”, the “polyreactivity (PSR sort gate)” value is reported as “high polyreactivity”. In the case of “QVQLVESGGGLVQAGGSLRLSCAASGGTFRVYAMGWYRQAPGKERELVAAITGRGGSTYYADSVKGRFTISRDNAKNTVYLQMNSLKPEETAVYYCAKDPVTTYYKYDYWGQGTQVTVSS”, the “polyreactivity (PSR sort gate)” value is reported as “low polyreactivity”. For “QVQLVESGGGLVQAGGSLRLSCAASGGTFRYNAMGWYRQAPGKERELVAAITSVGITNYADSVKGRFTISRDNAKNTVYLQMNSLKPEDTAVYYCAKRYYRYGARSWYYPYDYWGQGTQVTVSS”, the “polyreactivity (PSR sort gate)” value was “high polyreactivity”. In the case of “QVQLVESGGGLVQAGGSLRLSCAASGGTFRYYTMVWYRQAPGKERELVAAITRGGRTYYADSVKGRFTISRDNAKNTVYIQMNSLKPEDTAVYYCAAVRPRSPVSYENDYWGQGTQVTVSS”, the “polyreactivity (PSR sort gate)” value is reported as “high polyreactivity”.
